From patent US20230295310A1 (ABCELLERA BIOLOGICS, published 2023)

Experiments:
cynomolgus monkey CD3 = biological target: T1, cynomolgus monkey CD3 (cynomolgus monkey, UniProt Q95LI5 22-198; Q95LI8 22-171; Q95LI7 23-181); experiment: flow cytometry, cyno primary T cells
T1 construct: whole, on cells; CD3 on purified cynomolgus monkey CD3 pan T cells; also called cyno CD3; CD3 on cyno primary T cells
Method in brief: (§1)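 Antibodies at 25 nM in PBS + 2% FBS were incubated with CD3-expressing cells for 30 min at 4 °C and read by flow cytometry. Median fluorescence intensity was normalized to isotype control as fold over isotype; ≥10 counted as binding.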

human CD3 [1] = biological target: T2, human CD3 (human, UniProt P07766 23-207; P04234 22-171; P09693 23-182); experiment: flow cytometry, Jurkat cells
T2 construct: whole, on cells; also called CD3 on Jurkat cells; CD3 on human primary T cells
T2 sequence (P07766 23-207, chain 1 of 3): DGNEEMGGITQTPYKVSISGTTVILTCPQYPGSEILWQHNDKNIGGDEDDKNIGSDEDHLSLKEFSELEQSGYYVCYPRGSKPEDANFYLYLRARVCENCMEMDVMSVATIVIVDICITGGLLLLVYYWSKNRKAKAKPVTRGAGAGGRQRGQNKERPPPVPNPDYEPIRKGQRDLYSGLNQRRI
T2 sequence (P04234 22-171, chain 2 of 3): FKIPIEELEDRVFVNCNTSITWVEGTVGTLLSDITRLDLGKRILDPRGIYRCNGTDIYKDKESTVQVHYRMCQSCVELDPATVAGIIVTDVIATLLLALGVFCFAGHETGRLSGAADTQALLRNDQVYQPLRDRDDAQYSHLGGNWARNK
T2 sequence (P09693 23-182, chain 3 of 3): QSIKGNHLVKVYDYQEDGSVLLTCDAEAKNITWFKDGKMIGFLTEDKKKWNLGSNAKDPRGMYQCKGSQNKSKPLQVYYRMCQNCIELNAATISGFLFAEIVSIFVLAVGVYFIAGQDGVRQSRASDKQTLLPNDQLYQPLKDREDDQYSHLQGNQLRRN
Protocol: (§2) Purified antibodies were confirmed to bind CD3 expressed on cells using the CytoFLEX S or LX flow cytometers (Beckman Coulter). Antibodies were diluted to 25 nM in FACS buffer (PBS+2% FBS) and were incubated with CD3-expressing cells for 30 minutes at 4° C. […] The median fluorescence intensity of the binding signal for each antibody was normalized to the isotype control to obtain a fold over isotype value. An antibody with a fold over isotype (FOI) of ≥10 was considered to be positive for binding.

human CD3 [2] = biological target: T2, human CD3; experiment: flow cytometry, human primary T cells, 25 nM antibody
Protocol: as §2

human CD3 [3] = biological target: T2, human CD3; experiment: flow cytometry, Jurkat cells, 25 nM antibody
Protocol: as §2

[4] = biological target: T3, cynomolgus monkey CD3 expressed on cyno primary T cells (cynomolgus monkey, UniProt Q95LI5 22-198; Q95LI8 22-171; Q95LI7 23-181); experiment: flow cytometry, cyno primary T cells
T3 construct: whole, on cells; CD3 complex on purified cynomolgus monkey CD3 pan T cells; also called cyno CD3
T3 sequence (Q95LI5 22-198, chain 1 of 3): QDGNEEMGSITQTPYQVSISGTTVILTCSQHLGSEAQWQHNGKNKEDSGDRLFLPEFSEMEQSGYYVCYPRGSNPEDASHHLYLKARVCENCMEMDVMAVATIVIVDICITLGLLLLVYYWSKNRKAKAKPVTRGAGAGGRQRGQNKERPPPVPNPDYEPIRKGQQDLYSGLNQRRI
T3 sequence (Q95LI8 22-171, chain 2 of 3): as the sequence (P04234 22-171, chain 2 of 3) above, with I5V, N15K, I20V, S32T, D33N, I34N, T64A, S74N, V83L, H141R counted along it
T3 sequence (Q95LI7 23-181, chain 3 of 3): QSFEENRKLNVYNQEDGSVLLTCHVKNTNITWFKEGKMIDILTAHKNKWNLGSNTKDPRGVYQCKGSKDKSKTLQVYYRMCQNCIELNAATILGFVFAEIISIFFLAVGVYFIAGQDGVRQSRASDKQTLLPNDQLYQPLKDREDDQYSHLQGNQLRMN
Method in brief: as §1

[5] = biological target: T4, human CD3 expressed on cells (Jurkat cells; human primary T cells) (human, UniProt P07766 23-207; P04234 22-171; P09693 23-182); experiment: flow cytometry, Jurkat cells
T4 construct: whole, on cells
T4 sequence (P07766 23-207, chain 1 of 3): as the sequence (P07766 23-207, chain 1 of 3) above
T4 sequence (P04234 22-171, chain 2 of 3): as the sequence (P04234 22-171, chain 2 of 3) above
T4 sequence (P09693 23-182, chain 3 of 3): as the sequence (P09693 23-182, chain 3 of 3) above
Protocol: as §2

T1 sequence (Q95LI5 22-198, chain 1 of 3): as the sequence (Q95LI5 22-198, chain 1 of 3) above
T1 sequence (Q95LI8 22-171, chain 2 of 3): as the sequence (P04234 22-171, chain 2 of 3) above, with I5V, N15K, I20V, S32T, D33N, I34N, T64A, S74N, V83L, H141R counted along it
T1 sequence (Q95LI7 23-181, chain 3 of 3): as the sequence (Q95LI7 23-181, chain 3 of 3) above

B1: mAb 310 (antibody, V domains shown)
VH: QVQLVESGGGVVQPGRSLRLSCAASGFTFRSYGMHWVRQAPGKGLEWVTIIWYDGSKKYYADSVRGRFTISRDNSKNMLYLQMNSLRAEDTAVYYCASQEFNWNDGGFYYMDVWGKGTTVTVSS
VL: DIQLTQSPSFLSASVGDRVTITCRASQDISSYLHWCQQKPGKAPKLLIYGASTLQSGVPSRFSGSGSGKEFTLTISSLQPEDFATYYCQQLDNYPPTFGGGTKVEIK
notes: VH and VL only
B1: no binding (tested: FOI ≥10 = positive; 25 nM) (cynomolgus monkey CD3); no binding (tested: FOI ≥10 = positive; 25 nM) (human CD3 [1]).

B2: mAb 300 (antibody, V domains shown)
VH: EVQLLESGGGLVQPGGSLRLSCAASGFTFSRYAMSWVRQAPGRGLEWVSTISGSGGRTYYVDSVKGRFTISRDNSKNTLYLQMNSLRAEDTAVYYCAKMFSYYYYYMDVWGKGTTVTVSS
VL: EIVMTQSPATLSLSPGKRATLSCRASQSVSTTYLSWYLQKPGQAPRLLIYGASTRATGIPARFSGSGSGTDFTLTISSLQPEDFAVYYCQQDYNLPPYTFGQGTKLEIK
notes: VH and VL only
With B2 the binding result (cynomolgus monkey CD3) was “no binding (tested: FOI ≥10 = positive; 25 nM)”, the “Human primary T Cell Binding (FOI)” value (human CD3 [2]) was 26.7 FOI and the “Jurkat Cell Binding (FOI)” value (human CD3 [3]) was 68 FOI.

B3: mAb 292 (antibody, V domains shown)
VH: EVQLLESGGGLVQPGGSRRLSCAASGFTFSTYAMSWVRQAPGKGLEWVSVINGRGDDTNYADSVKGRFTISRDNSKNILFLQMNSLRAEDTAVYYCAKKYSYYYYYMDVWGKGTTVTVSS
VL: SYELTQPLSVSVALGQTARITCGGNNIGSKDVHWYQQKPGQAPVLVIYRDSNRPSGIPERFSGSNSGNTATLTISRAQAGDEADYYCQVWDSRTAVFGGGTQLTAL
notes: VH and VL only
In the case of B3, the binding result (cynomolgus monkey CD3) is reported as “no binding (tested: FOI ≥10 = positive; 25 nM)”, the “Human primary T Cell Binding (FOI)” value (human CD3 [2]) is reported as 255 FOI and the “Jurkat Cell Binding (FOI)” value (human CD3 [3]) is reported as 227 FOI.

B4: mAb 289 (antibody, V domains shown)
VH: EVQLLESGGGLVQPGGSRRLSCAASGFTFSSFAMSWVRQAPGKGLEWVSVISSRGDNTNYADSVKGRFTISRDNSKNTLYLQMNSLRAEDTAVYYCAKKYSYYYYYMDVWGKGTTVTVSS
VL: SYELTQPLSVSVALGQTARITCGGNNIGSKNVHWHQQKPGQAPVLVIYRESNRPSGIPERFSGSNSGNTATLTSSRAQAGDEADYYCQVWDSSTAVFGGGTQLTAL
notes: VH/VL only
B4: no binding (tested: FOI <10 (FOI >=10 = positive); 25 nM) [4]; no binding (tested: FOI <10 (FOI >=10 = positive); 25 nM) [5].

B5: mAb 318 (antibody, V domains shown)
VH: EGQLLESGGGLVQPGGSLRLSCAASGFTFSRYAMSWIRQAPGKGLEWVSVIDGSGGDKNYADSVKGRFTISRDNSKNSLYLLMNGLRVEDTAIYFCAKKFSYYYYYMDVWGKGTSVTVSS
VL: SYELTQPLSVSVALGQTARITCGGNNIGGKDVHWYQQKPGQAPVLVIYRDSNRPSGIPERFSGSNSGNTATLTISRAQAGDEADYYCQVWDSRTAVFGGGTQLTAL
notes: VH and VL only
For B5, the binding result (cynomolgus monkey CD3) was “no binding (tested: FOI ≥10 = positive; 25 nM)”, the “Human primary T Cell Binding (FOI)” value (human CD3 [2]) was 211 FOI and the “Jurkat Cell Binding (FOI)” value (human CD3 [3]) was 211 FOI.

B6: mAb 306 (antibody, V domains shown)
VH: EVQLLESGGGLVQPGGSLRLSCAASGFTFNSYAMSWVRQAPGRGLEWVSAISGRKSTTYYADSVKGRFTISRDNSKNTLYLQMNSLRAEDTAVYYCAKLWNYYYYYMDVWGKGTTVTVSS
VL: SYELTQPLSVSVALGQTARITCGGNNIGSKDVHWYQQKPGQAPVLVIYRDSNRPSGIPERFSGSNSGNTATLTISRAQAGDEADYYCQVWDSSTAVFGGGTQLTAL
notes: VH and VL only
B6 was tested, and the binding result (cynomolgus monkey CD3) was “no binding (tested: FOI ≥10 = positive; 25 nM)”, the “Human primary T Cell Binding (FOI)” value (human CD3 [2]) was 219 FOI and the “Jurkat Cell Binding (FOI)” value (human CD3 [3]) was 216 FOI.

B7: mAb 311 (antibody, V domains shown)
VH: EVQLLESGGGLVQPGGSRRLSCAASGFTFSSYAMSWVRQAPGKGLEWVSVINTRGDITSYADSVKGRFTISRDNSKNTLYLQMNSLRAEDTAVYYCAKKYSYYYYYMDVWGKGTTVTVSS
VL: SYELTQPLSVSVALGQTARITCGGNNIGSKNVHWHQQKPGQAPVLVIYRESNRPSGIPERFSGSNSGNTATLTSSRAQAGDEADYYCQVWDSSTAVFGGGTQLTAL
notes: VH and VL only
B7: no binding (tested: FOI ≥10 = positive; 25 nM) (cynomolgus monkey CD3); no binding (tested: FOI ≥10 = positive; 25 nM) (human CD3 [1]).

B8: mAb 301 (antibody, V domains shown)
VH: EVQLLESGGGLVQPGGSRRLSCAASGFTFSSYAMSWVRQAPGKGLEWVSVISGRGDNTNYADSVKGRFTISRENSKNMLYLQMNSLRAEDTAVYYCAKKYSYYYYYMDVWGKGTTVTVSS
VL: SYELTQPLSVSVALGQTARITCGGNNIGSKDVHWYQQKPGQAPVLVIYRDSNRPSGIPERFSGSNSGNTATLTISRAQAGDEADYYCQVWDSRTAVFGGGTQLTAL
notes: VH and VL only
B8 was tested, and the binding result (cynomolgus monkey CD3) was “no binding (tested: FOI ≥10 = positive; 25 nM)”, the “Human primary T Cell Binding (FOI)” value (human CD3 [2]) was 283 FOI and the “Jurkat Cell Binding (FOI)” value (human CD3 [3]) was 253 FOI.

B9: mAb 297 (antibody, V domains shown)
VH: EVQLLESGGGLVQPGGSLRLSCAASGFTFSSYAMNWVRQAPGKGLEWVSIISGGRRDDITYYAASVKGRFTISRDNSKNTLYLQMNSLRAEDTAVYYCAKMYNYYYYYIDVWGKGTTVTVSS
VL: SYELTQPLSVSVALGQTAKITCGGNNIGSKDVHWYQQKPGQAPVLVIYRDSNRPSGIPERFSGSNSGNTATLTISRAQAGDEADYYCQVWDSNTAVFGGGTQLTAL
notes: VH and VL only
With B9 the binding result (cynomolgus monkey CD3) was “no binding (tested: FOI ≥10 = positive; 25 nM)”, the “Human primary T Cell Binding (FOI)” value (human CD3 [2]) was 211 FOI and the “Jurkat Cell Binding (FOI)” value (human CD3 [3]) was 220 FOI.

B10: mAb 296 (antibody, V domains shown)
VH: EVQLLESGGGLVQPGGSLRLSCAASGFTFSSYAMSWVRQAPGKGLEWVSAISGSGGTTYYTDSVKGRFTISRDNSKNTLYLQMNSLRAEDTAVYYCAKKYSYYYYYMDVWGKGTTVTVSS
VL: SYELTQPLSVSVALGQTARITCGGNNIGSKNVHWYQQKPGQAPVLVIYRDSNRPSGIPERFSGSNSGNTATLTISRAQAGDEADYYCQVWDSSTAVFGGGTQLTAL
notes: VH and VL only
B10 was tested, and the binding result (cynomolgus monkey CD3) was “no binding (tested: FOI ≥10 = positive; 25 nM)”, the “Human primary T Cell Binding (FOI)” value (human CD3 [2]) was 183 FOI and the “Jurkat Cell Binding (FOI)” value (human CD3 [3]) was 167 FOI.

B11: mAb 304 (antibody, V domains shown)
VH: EVQLLESGGGLVQPGGSRRLSCAASGFTFSSYAMSWVRQAPGKGLEWVSVISGRGDNTNYADSVKGRFTISRENSKNILYLQMNSLRAEDTAVYYCAKKYSYYYYYMDVWGKGTTVTVSS
VL: SYELTQPLSVSVALGQTARITCGGNNIGSKDVHWYQQKPGQAPVLVIYRDSNRPSGIPERFSGSNSGNTATLTISRAQAGDEADYYCQVWDSRTAVFGGGTQLTAL
notes: VH and VL only
B11 was tested, and the binding result (cynomolgus monkey CD3) was “no binding (tested: FOI ≥10 = positive; 25 nM)”, the “Human primary T Cell Binding (FOI)” value (human CD3 [2]) was 226 FOI and the “Jurkat Cell Binding (FOI)” value (human CD3 [3]) was 234 FOI.

B12: mAb 316 (antibody, V domains shown)
VH: EVQLLESGGGLVQPGGSRRLSCAASGFTFRTYAMSWVRQAPGKGLEWVSVINGRGDDTNYADSVKGRFTISRDNSKNILFLQMNSLRAEDTAVYYCAKKYSYYYYYMDVWGKGTTVTVSS
VL: SYELTQPLSVSVALGQTARITCGGNNIGSKDVHWYQQKPGQAPVLVIYRDSNRPSGIPERFSGSNSGNTATLTISRAQAGDEADYYCQVWDSRTAVFGGGTQLTAL
notes: VH and VL only
For B12, the binding result (cynomolgus monkey CD3) was “no binding (tested: FOI ≥10 = positive; 25 nM)”, the “Human primary T Cell Binding (FOI)” value (human CD3 [2]) was 241 FOI and the “Jurkat Cell Binding (FOI)” value (human CD3 [3]) was 253 FOI.

B13: mAb 303 (antibody, V domains shown)
VH: EVHLLESGGGLVQPGGSLRLSCAASGFTFSSYAMNWVRQAPGKGLEWISIISGGRRSGITYYAASVKGRFTISRDNSKNTLDLQMNSLRAEDTAVYYCAKMYNYYYYYIDVWGKGTTVTVSS
VL: SYELTQPLSVSVALGQTARITCGGNNIGSKDVHWYQQKPGQAPVLVIYRDSNRPSGIPERFSGSNSGNTATLTISRAQAGDEADYYCQVWDSNTAVFGGGTQLTAL
notes: VH and VL only
With B13 the binding result (cynomolgus monkey CD3) was “no binding (tested: FOI ≥10 = positive; 25 nM)”, the “Human primary T Cell Binding (FOI)” value (human CD3 [2]) was 256 FOI and the “Jurkat Cell Binding (FOI)” value (human CD3 [3]) was 247 FOI.

B14: mAb 294 (antibody, V domains shown)
VH: EVQLLESGGGLVQPGGSLRLSCAASGFTFSSSVMSWVRQGPGKGLEWVSAIRGSGVYTYYADSVKGRFTISRDNSKNTLYLQMNSLRAEDTAVYYCAKKYSYYYYYMDVWGKGTTVTVSS
VL: PYELTQPLSVSVALGQTARITCGGNNIGSKDVHWYQQKPGQAPVLVIYRDSNRPSGIPERFSGSNSGNTATLTISRAQAGDEADYYCQVWDSSTAVFGGGTQLTAL
notes: VH and VL only
B14: no binding (tested: FOI ≥10 = positive; 25 nM) (cynomolgus monkey CD3); no binding (tested: FOI ≥10 = positive; 25 nM) (human CD3 [1]).
